The values that follow come from US20250277003A1.

The target in test [1] is SARS-CoV-2 spike receptor-binding domain, wildtype (CoV-2 RBD WT) (SARS-CoV-2) (UniProt P0DTC2). As to the kind of experiment: bead flow cytometry. A general note: In flow cytometry, cells or beads pass a laser one at a time.
In test [2] the target is BatCoV Anlong-103 spike RBD (BatCoV Anlong-103). As to the kind of experiment: bead flow cytometry.

As for mAb CR3022 (antibody), the figures for the gMFI in test [1] and in test [2] were 25800 and 12900, respectively.
mAb S309 (antibody): the values for the gMFI in test [1] and in test [2] were 8370 and 69.3, respectively.
